Laboratory results taken from US20240400689A1 (ANTENGENE BIOLOGICS, published 2024).

How the values were obtained:
human CD276 protein [1] = molecular target: T1, human CD276 protein (human, UniProt Q5ZPR3 29-534); test: cell-based or functional assay
T1 sequence (looked up): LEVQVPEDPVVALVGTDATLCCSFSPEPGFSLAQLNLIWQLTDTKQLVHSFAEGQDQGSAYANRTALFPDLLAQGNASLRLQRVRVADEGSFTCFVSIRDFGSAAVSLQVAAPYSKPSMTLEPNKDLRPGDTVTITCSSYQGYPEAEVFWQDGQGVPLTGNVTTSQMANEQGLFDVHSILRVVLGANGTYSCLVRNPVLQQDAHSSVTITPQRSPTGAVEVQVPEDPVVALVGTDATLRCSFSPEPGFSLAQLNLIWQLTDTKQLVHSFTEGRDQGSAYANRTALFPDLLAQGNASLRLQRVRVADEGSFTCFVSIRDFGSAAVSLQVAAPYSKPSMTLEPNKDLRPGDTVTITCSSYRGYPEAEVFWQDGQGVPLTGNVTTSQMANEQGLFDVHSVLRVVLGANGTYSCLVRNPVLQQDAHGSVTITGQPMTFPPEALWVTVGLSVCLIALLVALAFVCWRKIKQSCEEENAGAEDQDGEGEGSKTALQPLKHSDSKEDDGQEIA

mouse CD276 protein = molecular target: T2, mouse CD276 protein (mouse, UniProt Q8VE98 29-316); test: FACS on CHO-S-mCD276 cells
T2 construct: whole, on cells; also called mCD276; CHO-S-mCD276
T2 sequence (looked up): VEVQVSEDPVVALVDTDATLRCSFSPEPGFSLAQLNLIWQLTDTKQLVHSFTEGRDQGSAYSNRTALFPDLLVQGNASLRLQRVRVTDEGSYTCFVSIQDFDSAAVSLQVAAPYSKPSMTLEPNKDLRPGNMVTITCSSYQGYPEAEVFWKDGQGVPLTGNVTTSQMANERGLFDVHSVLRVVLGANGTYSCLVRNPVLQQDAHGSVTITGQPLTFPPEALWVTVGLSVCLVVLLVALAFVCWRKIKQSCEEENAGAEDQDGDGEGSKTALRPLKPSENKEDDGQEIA
Method: (§1) Screening & Expansion—The subcloning plates were screened by protein or cell-based Elisa, and the subclones with good binding ability were expanded to 24-wells for confirmation tests. The specificity and cross-reactivity of these subclones were confirmed with FACS analysis. Briefly, parental CHO-S cells, CHO-S-hCD276, CHO-S cell line stably over-expressing Macaca fascicularis CD276, CHO-K1 S, cell line stably over-expressing mouse CD276 were incubated with antibodies produced by each subclone respectively. Fluorescent dye-conjugated secondary antibody was used to detect the binding of the primary antibody with the cells. Median fluorescence intensity was measured by FACS analysis.

human CD276 protein [2] = molecular target: T1, human CD276 protein; test: FACS on CHO-S-hCD276 cells
Method: as §1

[3] = molecular target: T3, Macaca fascicularis CD276 (Macaca fascicularis); test: FACS on CHO-S-cynoCD276 cells
T3 construct: whole, on cells; also called cynomolgus monkey CD276; cynoCD276
Method: as §1

Binder	EC50 of antibody induced ADCC effect on SKOV3 (human CD276 protein [1]) [mg/L]	FACS MFI (mouse CD276 protein)	FACS MFI (human CD276 protein [2])	FACS MFI [3]
5-D1-G6-D9 (human IgG1 chimeric antibody) (antibody, V domains shown) VH: EVQLQESGAELVKPGASVKLSCKTSGLTFSTNYISWLKQKPGQSLEWIAWIYGGNGGTSYNQRFTGKAQLTVDTSSSTAYMQFSSLTTEDSAIYYCTSHDYYGGPMDYWGQGTSVTVSS VL: DIQMTQTTSSLSASLGDRVTISCRASQDISNYLNWYQQKPDGTVKLLIYFTSRLHSGVPSRFSASGSGTDYSLTISNLEQEDIATYFCQQTNTLPWTFGGGTKLEIK	1.55	–	–	–
9-E8-F9-C10 (human IgG1 chimeric antibody) (antibody, V domains shown) VH: EVQLQQSGAELVRPGTSVKISCKASGYAFSDYWLSWVKQRPGHGLEWIGDICPGSGNIYYNERFKDKVILTADRSSSTAYLQFSSLTSEDSVVYFCTRLITRVIDYWGQGTSVTVST VL: ENVLTQSPAIMSASPGEKVTMTCSASSSVNYMHWYQQKSSTSPKLWIYDTSKLSSGVPGRFSGSGSGNSYSLTISSMEAEDVATYYCFQGSGYPLTFGAGTKLELK	4.05	–	–	–
2-A7-B10-A3 (human IgG1 chimeric antibody) (antibody, V domains shown) VH: QVQLQQSGAELVRPGVSVKISCKGSGYTFTDYAMHWVKQSHAKSLEWIGVINTNYVNTSYNQKFKGKATMTVDKSSSTAFMELARLTSEDSAIYYCARGGKYGNYVFFFAYWGQGTLVTVSA VL: DIQMTQTTSSLSASLGDRVTISCRASQDISNYLNWYQQKPDGTVKLLIYYTSRLHSGVPSRFSGSGSGTDYSLTISNLEQEDIATYFCQQGNTLPYTFGGGTKLEIK	4.21	–	–	–
3-F2-E7-F9 (antibody, V domains shown, mouse monoclonal antibody (hybridoma)) VH: QVQLQQSGPELVRPGVSVKISCKGSGYTFTDYTMHWVKESHAKSLEWIGVISTYYGNTNYNQKFKGKATLTVDKSSSTAYMELAGLTSEDSAIYYCARASYGSGYGPYYWYFDVWGAGTTVTVSS VL: DIQMTQSPASLFASVGETVTITCRASEKIYSYLAWYFQKQGKSPQFLVYNANALAEGVPSRFSGSGSGTQFSLKINSLQPEDFGTYYCQHHYGTPVTFGAGSKLELK	–	1140	52300	35700
20-A2-D10-G8 (antibody, V domains shown, mouse monoclonal antibody (hybridoma)) VH: QVQLQQSGPELVRPGVSVKISCKGSGYTFTDYTMHWVKESHAQSLEWIGVISTYYGNTNYNQNFKGKATLTVDKSSSTAYMELAGLTSEDSAIYYCARASYGSGYGPYYWYFDVWGAGTTVTVSS VL: DIQMTQSPASLFASVGETVTITCRASEKIYSYLAWYFQKQGKSPQFLVYNANALAEGVPSRFSGSGSGTQFSLKIKSLQPEDFGTYYCQHHYGSPVTFGAGSKLELK	–	1260	77100	9020
24-C10-F9-G7 (antibody, V domains shown, mouse monoclonal antibody (hybridoma)) VH: EVQLQESGPELVRPGVSVKISCKGSGYTFTDHTMHWVKESHAQSLEWIGVISTYYGNTNYNQNFKGKATLTVDKSSSTAYMELAGLTSEDSAIYYCARASYGSGYGPYYWYFDVWGAGTTVTVSS VL: DIQMTQSPASLFASVGETVTITCRASEKIYSYLAWYFQKQGKSPQFLVYNANALAEGVPSRFSGSGSGTQFSLKINSLQPEDFGTYYCQHHYGTPVTFGAGSKLELK	–	1180	85100	15200
6-D8-E7-A11 (antibody, V domains shown, mouse monoclonal antibody (hybridoma)) VH: QVHLQQPGAELVKPGASVKLSCKASGYTFTNYWMHWVKRRPGQGLEWIGMIHPNSGTTSFNEKFKSKATLTVDKSSSTAYMQLSSLTSEDSAVYYCAGYYGSSFSWFTYWGQGTLVTVSA VL: QAVVTQESALTTSPGGTVILTCRSSTGAVTTSNFANWVQEKPDHLFTGLIGGTSNRAPGVPVRFSGSLIGDKAALTITGAQTEDDAMYFCALWYSTHYVFGGGTKVTVL	–	92600	37900	101000
5-D1-G6-D9 (antibody, V domains shown, mouse monoclonal antibody (hybridoma)) VH: EVQLQESGAELVKPGASVKLSCKTSGLTFSTNYISWLKQKPGQSLEWIAWIYGGNGGTSYNQRFTGKAQLTVDTSSSTAYMQFSSLTTEDSAIYYCTSHDYYGGPMDYWGQGTSVTVSS VL: DIQMTQTTSSLSASLGDRVTISCRASQDISNYLNWYQQKPDGTVKLLIYFTSRLHSGVPSRFSASGSGTDYSLTISNLEQEDIATYFCQQTNTLPWTFGGGTKLEIK	–	1530	45300	62200
23-F10-G4-F11 (antibody, V domains shown, mouse monoclonal antibody (hybridoma)) VH: EVQLQESGPDLVRPGALVKLSCKSSGFNIKDYPIHWVRQRPEQGLEWIGWFDPDNGNVIYDPRFQGKASITADTSSNTAYLQLNSLTSEDTAVYYCSSPYGAMDYWGQGTSVTVSS VL: QIVLTQSPEIMSASPGEKVTMTCSASSSVSYIHWYQQKSGTSPKRWIYDTSKLASGVPARFSGSGSGTSYSLTIRSMEAEDAATYYCQQGSSNPRTFGGGTKLEIK	–	1300	127000	36700
16-C6-F7-F5 (antibody, V domains shown, mouse monoclonal antibody (hybridoma)) VH: QIQLVQSGPEVKKPGETVKISCKASGYTFTKYGINWVKQAPGEGLKWMGWIWTYTGKPTYGDDFKGRFAFSLETSASTAYLQISDLKIEDMATYFCARDDGYYYTMNYWGQGTSVTVSS VL: DIVMTQTPLSLPVSLGDQASISCRSSQSLLHTNGDTYLHWYLQKAGQPPKLLIYKVSNRFSGVPDRFSGSGSGTDFTLKISRVEAEDLGVYFCSQSTHIPWTFGGGTKLEIK	–	1830	141000	19500
22-E11-C3-F2 (antibody, V domains shown, mouse monoclonal antibody (hybridoma)) VH: QIQLVQSGPELKRPGETVKISCKASGYSFTNYGMNWVKQAPGKGLKWMGWINPYTGEPTYADDFKGRFAMSLETSASAAYLQINNLKNEDMATYFCGRDDGYHYTMNYWGQGTSVTVSS VL: DVVMTQPPLSLPVSLGDQASISCRSSQSLIHSNGDTYLHWYLQKPGQSPKLLIYKVSIRFSGVPDRFSGSGSGTDFTLKISRVEAEDLGVYFCSQSTYVPWTFGGGTKLEIK	–	1670	74300	56500
26-D2-D6-B12 (antibody, V domains shown, mouse monoclonal antibody (hybridoma)) VH: QIQLVQSGPELKKPGETVKISCKASGYIFRNYGMNWVKQAPGKGLKWMGWINSYTGKPTYVDDFKGRFAFSLETSASTAYLQINNLKNEDMATYFCARDDGYWYTMDYWGQGTSVTVSS VL: DVVMTQTPLSLPVSLGDQASISCRSSQSLVHSNGHTYLHWYLQKPGQSPKLLIYKVSNRFSGVPDRFSGSGSGTDFTLKISRVEAEDLGVYFCSQSTHVPWTFGGGTKLEIK	–	1310	47500	63100
11-C12-F4-F6 (antibody, V domains shown, mouse monoclonal antibody (hybridoma)) VH: QIQLVQSGPELKKPGETVKISCKASGYTFRNFGMNWVKQGPGKGLKWMGWINPYTGEPTYVGDFKGRFAFSLETSASTAYLQINNLKNEDMATYFCARDDGYWYTMDYWGQGTSVTVSS VL: DVVMTQTPPSLPVSLGDQASIPCRSSQSLVHSNGITYLHWYLQKPGQSPKLLIYKVSNRFSGVPDRFSGSGSGTDFTLKISRVEAEDLGVYFCSQSTHVPWTFGGGTKLEIK	–	1340	41900	5140
16-G3-D10-C10 (antibody, V domains shown, mouse monoclonal antibody (hybridoma)) VH: QIQLVQSGPELKKPGETVKISCKASGYTFRNYGMNWVKQGPGKDLKWMGWINPYTGEPTYIGDFKGRFAFSLETSANSAYLQINNLNNEDMATYFCARDDGYWYTMDYWGQGTSVTVSS VL: DVVMTQTPPSLPVSLGDQASIPCRSSQSLVHSNGITYLHWYLQKPGQSPKLLIYKVSNRFSGVPDRFSGSGSGTDFTLKISRVEAEDLGVYFCSQSTHVPWTFGGGTKLEIK	–	1320	23200	6190
21-B3-B1-H5 (antibody, V domains shown, mouse monoclonal antibody (hybridoma)) VH: QIQLVQSGPELKKPGETVKISCKASGYIFRNYGMNWVKQAPGKGLKWMGWINSYTGKPTYVDDFKGRFAFSLETSASTAYLQINNLKNEDMATYFCARDDGYWYTMDYWGQGTSVTVSS VL: DVVMTQTPLSLPVSLGDQASISCRSSQSLVHSNGHTYLHWYLQKPGQSPKLLIYKVSNRFSGVPDRFSGSGSGTDFTLKISRVEAEDLGVYFCSQSTHVPWTFGGGTKLEIK	–	1340	71500	20200
11-G10-B4-B11 (antibody, V domains shown, mouse monoclonal antibody (hybridoma)) VH: DVQLQESGPGLVKPSQSLSLTCTVTGYSITSDYAWNWIRQFPGNKLEWMGYISYSGSTSYNPSLKSRISITRDTSKNQFFLQLNSVTTEDTATYYCARGGPWFAYWGQGTLVTVSA VL: DVVMTQTPLSLPVSLGDQASISCRSSQSLVHSNGNTYLHWYLQKPGQSPKLLIYKVSNRFSGVPDRFSGSGSGTDFTLKISRVEAEDLGVYFCSQSTHVPFTFGSGTKLEIK	–	2800	32800	26400
